Where no end group is shown, it is not given here.
Tests used:
[1] = biological target: T1, recombinant FGFR2-ECD (Met1-Glu377), extracellular domain of FGFR2c (UniProt P21802 22-377, glycosylated); experiment: phage display biopanning (4 rounds) against immobilized recombinant FGFR2-ECD; peptide displayed on M13 phage
T1 construct: range 1-377; Bought construct; also called #10824-H08H-50, Sino Biological
Protocol: Peptide selection was performed using a phage display library (New England Biolabs, Ph.D.-12) per manufacturer instructions. This library consists of M13 bacteriophage that expresses ˜10⁹ unique 12-amino acid sequences. 2×10¹¹ pfu consisting of 2×10⁹ unique clones with ˜100 copies each were biopanned against FGFR2-ECD immobilized in a 6-well plate at 4° C. Four rounds of biopanning were performed using a decreasing quantity (100, 80, 60, and 40 μg) of FGFR2-ECD in successive rounds to increase binding specificity. After the 4th round, 50 plaques were randomly selected for DNA preparation and sequence analysis. We used an ABI Automatic DNA Analyzer (Applied Biosystems) with primer 5′-[…] TTA GCG TAA CG-3′ (−96 gIII sequencing primer, New England Biolabs) that corresponds to the pIII gene sequence of the M13 phage.

[2] = biological target: FGFR2c (fibroblast growth factor receptor 2, isoform IIIc) stably expressed on QhTERT cells (UniProt P21802); experiment: flow cytometry time course, 5 µM peptide on QhTERT cells expressing FGFR2c
Chain of FGFR2c (fibroblast growth factor receptor 2, isoform IIIc) stably expressed on QhTERT cells (P21802 22-821): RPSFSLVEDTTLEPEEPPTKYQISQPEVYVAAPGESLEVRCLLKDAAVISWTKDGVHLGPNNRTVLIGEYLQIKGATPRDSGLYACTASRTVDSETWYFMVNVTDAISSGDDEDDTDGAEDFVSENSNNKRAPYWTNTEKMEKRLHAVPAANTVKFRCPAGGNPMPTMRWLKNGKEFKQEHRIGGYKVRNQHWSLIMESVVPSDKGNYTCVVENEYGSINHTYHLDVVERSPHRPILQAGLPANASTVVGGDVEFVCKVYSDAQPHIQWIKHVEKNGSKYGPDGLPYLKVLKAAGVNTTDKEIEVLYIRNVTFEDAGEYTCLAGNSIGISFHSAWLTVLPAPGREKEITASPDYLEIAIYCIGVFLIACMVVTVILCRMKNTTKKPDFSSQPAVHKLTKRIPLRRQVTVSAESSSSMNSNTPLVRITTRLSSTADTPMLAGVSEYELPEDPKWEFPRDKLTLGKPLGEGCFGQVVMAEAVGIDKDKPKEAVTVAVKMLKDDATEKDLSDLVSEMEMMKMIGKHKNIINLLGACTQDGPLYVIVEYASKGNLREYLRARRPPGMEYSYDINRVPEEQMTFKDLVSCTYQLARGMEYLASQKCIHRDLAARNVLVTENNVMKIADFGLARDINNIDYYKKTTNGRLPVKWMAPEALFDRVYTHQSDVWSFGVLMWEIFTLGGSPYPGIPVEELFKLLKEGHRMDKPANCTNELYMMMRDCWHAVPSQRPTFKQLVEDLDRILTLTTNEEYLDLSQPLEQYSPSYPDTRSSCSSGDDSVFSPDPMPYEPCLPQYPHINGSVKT

[3] = biological target: FGFR2c (fibroblast growth factor receptor 2, isoform IIIc) stably expressed on QhTERT cells (UniProt P21802); experiment: flow cytometry on cells overexpressing FGFR2 (same experiment as kd=68 nM, printed with more digits)
[4] = biological target: FGFR2c (fibroblast growth factor receptor 2, isoform IIIc) stably expressed on QhTERT cells (UniProt P21802); experiment: flow cytometry time course, 5 µM peptide on QhTERT cells expressing FGFR2c, first order kinetics fit
[5] = biological target: FGFR2c (fibroblast growth factor receptor 2, isoform IIIc) stably expressed on QhTERT cells (UniProt P21802); experiment: flow cytometry, apparent dissociation constant on QhTERT cells expressing FGFR2c, 0-200 nM peptide, 4° C.

T1 sequence (P21802 22-377 limits assumed): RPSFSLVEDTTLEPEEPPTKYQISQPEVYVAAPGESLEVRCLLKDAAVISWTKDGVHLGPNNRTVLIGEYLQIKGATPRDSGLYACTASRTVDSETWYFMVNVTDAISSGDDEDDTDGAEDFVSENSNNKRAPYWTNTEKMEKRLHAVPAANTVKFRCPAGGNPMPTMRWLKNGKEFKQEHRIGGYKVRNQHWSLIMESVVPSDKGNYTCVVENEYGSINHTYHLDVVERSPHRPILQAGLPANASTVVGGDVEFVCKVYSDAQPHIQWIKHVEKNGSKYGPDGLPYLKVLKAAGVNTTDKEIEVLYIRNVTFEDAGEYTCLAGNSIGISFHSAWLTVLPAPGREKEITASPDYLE

Row | binding result [1] | time scale for onset of binding [2] [min] | Kd [3] [nM] | apparent association time constant k [4] [min⁻¹] | Kd [5] [nM] | Binder
1 | binds |  |  |  |  | SRRPASFRTARE (also called unlabeled SRR*; SSR peptide) [SRR* peptide SRRPASFRTARE, unlabeled]
2 |  | 6.2 | 67.9 | 0.16 | 68 | SRRPASFRTAREGGGSK(Cy5.5)-NH2 [SRR*-Cy5.5 (peptide … with Cy5.5 attached via a C-terminal GGGSK linker)]
